Values of other authors in patent US20150177237.

Molecular target: thrombin (UniProt P00734+P00734)
Conditions: n positions 6-20 are abasic (x); CITED known Kd of thrombin for its aptamer; nanopore event ratios at 10-1000 nM thrombin closely match theory from this Kd; 1 M KCl, 10 mM Tris pH 7.5

Sequence: AAAAANNNNNNNNNNNNNNNAAAAAAAAAAGGTTGGTGTGGTTGG [5A15x10A_TBA]
- Kd: 50 nM
